Test results from patent US20050277167A1 (published 2005).

Molecular target: T1, chicken prolyl 3-hydroxylase 1 (chicken P3H1) (chicken, UniProt Q6JHU8 15-725)
T1 construct: Native protein from chick embryos (gelatin sepharose, then 1C10 antibody column); also called chick homologue of leprecan; 90 kDa protein
T1 sequence: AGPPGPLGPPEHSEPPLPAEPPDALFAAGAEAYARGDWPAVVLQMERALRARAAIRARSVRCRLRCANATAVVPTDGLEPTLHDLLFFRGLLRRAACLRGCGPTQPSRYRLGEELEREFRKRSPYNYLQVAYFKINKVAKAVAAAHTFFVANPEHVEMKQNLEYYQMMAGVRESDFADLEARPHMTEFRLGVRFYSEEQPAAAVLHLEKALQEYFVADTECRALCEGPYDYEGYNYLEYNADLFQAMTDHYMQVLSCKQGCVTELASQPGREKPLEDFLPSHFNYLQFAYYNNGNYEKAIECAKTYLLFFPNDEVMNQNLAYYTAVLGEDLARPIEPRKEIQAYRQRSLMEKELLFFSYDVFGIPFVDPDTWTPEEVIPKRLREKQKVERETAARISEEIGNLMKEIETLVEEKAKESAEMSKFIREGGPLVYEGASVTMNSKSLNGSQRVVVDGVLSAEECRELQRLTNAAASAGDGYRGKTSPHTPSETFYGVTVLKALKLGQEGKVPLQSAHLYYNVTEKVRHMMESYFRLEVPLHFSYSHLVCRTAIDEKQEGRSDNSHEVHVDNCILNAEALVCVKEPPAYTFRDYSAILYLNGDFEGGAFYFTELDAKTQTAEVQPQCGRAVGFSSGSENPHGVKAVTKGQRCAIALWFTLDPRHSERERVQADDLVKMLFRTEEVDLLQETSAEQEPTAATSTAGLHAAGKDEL
Test: co-retention on 1C10 (anti-P3H1) column, elution at pH 6 and 0.5 M NaCl, SDS-PAGE and sequencing
Experimental: The antibody was produced and selected by standard methods and specificity of the antibody was determined using immunoblotting and ELISA techniques. The antibody recognizes both nonreduced and reduced (at much lower affinity) P3H1 and was used to create an affinity column for the purpose of protein purification. Briefly, a 2 ml column was created using approximately 10 mg of the 1C10 antibody and AminoLink® plus coupling gel (Pierce) following the manufacturer's instructions. Pooled and dialyzed peak fractions from the gelatin sepharose elution were then loaded onto the antibody column and the flow through was collected and concentrated for further purification of prolyl 4-hydroxylase and PDI by sieve chromatography on superose 12 resin (Pharmacia). The 1C10 antibody column was washed with 5 volumes of PBS (procedure described in Current Protocols in Protein Science Online), and then washed with 5 volumes of wash B buffer containing 50 mM sodium phosphate, pH 6.0, 0.5 M NaCl, and 0.1% Triton X-100 to elute associated proteins. […] Sequences of proteins eluted with the wash B buffer were determined by Edman degradation in a protein sequencer (Applied Biosystems Procise Sequencer). […]

B1: cyclophilin B (CYPB) (enzyme)
chain: not shown
notes: Native protein from chick embryos, 21 kDa on SDS-PAGE; also called 21 kDa protein
B1: binds.
